We go through three molecules from publication PMC8184850, “Cryo-EM structure of TFIIH/Rad4–Rad23–Rad33 in damaged DNA opening in nucleotide excision repair” (Nature Communications, 2021).

Holding throughout (settings): both partners purified
In one test the target is T1, Rad4–Rad23–Rad33 complex (yeast, UniProt P14736 1-754; P32628 1-398; Q04231 1-177).
T1 construct: Rad4 (XPC homologue), yeast; Rad23 (RAD23B homologue), yeast; Rad33 (CETN2 homologue), yeast; plasmid pETDuet-RAD33; also called Rad4–23–33; yeast homologue of XPC–RAD23B–CETN2; copies: + +
T1 sequence 1: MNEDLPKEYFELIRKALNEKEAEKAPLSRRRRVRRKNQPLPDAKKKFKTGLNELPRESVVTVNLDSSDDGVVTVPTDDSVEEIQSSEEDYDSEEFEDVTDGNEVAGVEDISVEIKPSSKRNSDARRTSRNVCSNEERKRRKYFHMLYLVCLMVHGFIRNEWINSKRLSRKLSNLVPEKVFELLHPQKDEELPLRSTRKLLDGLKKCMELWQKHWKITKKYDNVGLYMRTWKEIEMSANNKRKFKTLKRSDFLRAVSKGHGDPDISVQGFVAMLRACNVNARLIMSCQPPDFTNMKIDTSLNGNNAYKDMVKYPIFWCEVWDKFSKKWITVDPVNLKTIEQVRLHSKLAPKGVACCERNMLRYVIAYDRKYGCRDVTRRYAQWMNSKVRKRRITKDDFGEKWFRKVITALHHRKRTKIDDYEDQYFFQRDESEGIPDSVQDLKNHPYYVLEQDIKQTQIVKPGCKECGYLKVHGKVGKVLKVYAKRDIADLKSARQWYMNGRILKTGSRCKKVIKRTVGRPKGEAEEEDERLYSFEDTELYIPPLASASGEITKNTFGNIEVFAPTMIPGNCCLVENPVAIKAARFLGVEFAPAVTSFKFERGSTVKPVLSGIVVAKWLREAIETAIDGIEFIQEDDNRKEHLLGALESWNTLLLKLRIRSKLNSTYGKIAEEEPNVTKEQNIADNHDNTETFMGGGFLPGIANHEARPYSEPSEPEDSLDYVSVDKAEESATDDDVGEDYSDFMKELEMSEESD
T1 sequence 2: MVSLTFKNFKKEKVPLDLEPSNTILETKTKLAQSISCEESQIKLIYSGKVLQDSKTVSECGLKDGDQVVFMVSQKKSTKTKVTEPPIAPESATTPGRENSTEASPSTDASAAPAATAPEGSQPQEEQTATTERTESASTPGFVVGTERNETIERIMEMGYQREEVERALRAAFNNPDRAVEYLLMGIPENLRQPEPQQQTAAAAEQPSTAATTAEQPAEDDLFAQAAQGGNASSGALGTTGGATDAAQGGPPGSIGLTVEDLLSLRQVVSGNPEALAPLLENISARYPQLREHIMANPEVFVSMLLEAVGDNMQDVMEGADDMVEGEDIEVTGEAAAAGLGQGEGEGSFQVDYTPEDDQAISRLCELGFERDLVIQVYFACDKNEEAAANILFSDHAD
T1 sequence 3: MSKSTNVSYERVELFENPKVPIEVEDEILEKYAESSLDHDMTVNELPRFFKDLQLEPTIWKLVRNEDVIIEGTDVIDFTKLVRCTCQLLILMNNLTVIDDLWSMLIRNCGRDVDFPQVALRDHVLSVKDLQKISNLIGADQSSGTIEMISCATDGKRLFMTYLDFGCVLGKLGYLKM
Nature of the test: cross-linking; XL-MS: TFIIH/Rad4–Rad23–Rad33 assembled on −24/+24 AAF-DNA, 1 mg/mL in 20 mM HEPES pH 7.6, 300 mM potassium acetate, 5% glycerol, 5 mM DTT; 6 mM DSBU on ice 2 h; MeroX, FDR <1%.

For a further test, the target named is T2, Rad4 (yeast, UniProt P14736 1-754).
T2 construct: Rad4 (XPC homologue), yeast; Stood in the assays as part of Rad4–Rad23–Rad33; written alone for the contacts of the subunit; also called yeast homologue of XPC; source: Hi5 insect cells, co-expressed with Rad23, purified as the Rad4–Rad23 complex
T2 sequence (looked up): T1 sequence 1
Nature of the test: cryo-EM structure; coreTFIIH and Rad4–Rad23–Rad33 on −24*/+24 AAF-DNA with ATP, glycerol gradient with glutaraldehyde; Map 1 3.86 Å (TFIIH), Map 2 9.2 Å, Map 3 7.9 Å; Rad4, Rad33 and the Tfb1 PH domain placed by rigid-body docking of known structures or homology models.

The target of the next test is T3, Rad3 (yeast, UniProt P06839 1-778).
T3 construct: Rad3 (XPD homologue), subunit of yeast coreTFIIH; Stood in the assays as part of coreTFIIH; also called yeast homologue of XPD; source: purified from yeast as a subunit of coreTFIIH
T3 sequence (looked up): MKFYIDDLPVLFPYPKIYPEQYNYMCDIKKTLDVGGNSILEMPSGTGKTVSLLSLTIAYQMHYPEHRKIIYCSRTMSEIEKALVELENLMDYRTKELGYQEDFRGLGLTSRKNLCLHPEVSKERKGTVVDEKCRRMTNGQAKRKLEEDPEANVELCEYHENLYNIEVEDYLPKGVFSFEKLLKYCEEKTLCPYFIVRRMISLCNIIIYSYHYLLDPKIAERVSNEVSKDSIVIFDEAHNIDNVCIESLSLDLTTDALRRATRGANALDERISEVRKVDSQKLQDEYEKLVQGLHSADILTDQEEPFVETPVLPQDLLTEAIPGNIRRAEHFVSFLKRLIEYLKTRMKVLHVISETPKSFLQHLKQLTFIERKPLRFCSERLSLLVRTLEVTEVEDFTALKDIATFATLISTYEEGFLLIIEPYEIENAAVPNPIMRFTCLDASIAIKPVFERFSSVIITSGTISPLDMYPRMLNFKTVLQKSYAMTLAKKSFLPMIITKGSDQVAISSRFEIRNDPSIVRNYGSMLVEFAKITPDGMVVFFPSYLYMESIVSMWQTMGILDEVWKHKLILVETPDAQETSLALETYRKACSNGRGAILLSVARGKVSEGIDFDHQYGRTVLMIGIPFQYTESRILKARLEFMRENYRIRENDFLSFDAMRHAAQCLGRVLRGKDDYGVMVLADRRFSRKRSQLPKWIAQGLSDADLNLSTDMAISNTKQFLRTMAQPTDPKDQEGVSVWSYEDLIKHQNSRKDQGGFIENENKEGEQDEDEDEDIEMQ
The test is described as above.

A further test deals with T4, Tfb2 (yeast, UniProt Q02939 1-513).
T4 construct: Tfb2 (p52 homologue), subunit of yeast coreTFIIH; Tfb2C 412–513 as printed; Stood in the assays as part of coreTFIIH; also called yeast homologue of p52; source: purified from yeast as a subunit of coreTFIIH
T4 sequence (looked up): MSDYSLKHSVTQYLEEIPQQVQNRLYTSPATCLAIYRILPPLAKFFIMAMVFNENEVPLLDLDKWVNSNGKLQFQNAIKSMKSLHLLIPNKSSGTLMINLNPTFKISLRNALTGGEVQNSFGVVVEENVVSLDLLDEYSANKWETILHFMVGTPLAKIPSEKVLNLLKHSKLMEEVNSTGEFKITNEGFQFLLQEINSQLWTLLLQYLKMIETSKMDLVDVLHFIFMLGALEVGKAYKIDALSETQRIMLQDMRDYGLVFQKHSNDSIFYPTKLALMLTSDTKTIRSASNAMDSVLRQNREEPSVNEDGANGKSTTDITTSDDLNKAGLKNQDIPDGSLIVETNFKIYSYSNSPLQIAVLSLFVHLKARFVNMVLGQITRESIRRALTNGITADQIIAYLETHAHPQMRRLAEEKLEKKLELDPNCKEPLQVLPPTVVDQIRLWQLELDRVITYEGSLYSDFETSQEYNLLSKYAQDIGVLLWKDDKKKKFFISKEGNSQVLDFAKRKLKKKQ
The test is described as above.

A further test addresses T5, Ssl2 (Saccharomyces cerevisiae, UniProt Q00578 1-843).
T5 construct: Ssl2 (XPB homologue), subunit of yeast coreTFIIH; C-Ssl2 549–776, C-terminal region 771–843 as printed; Stood in the assays as part of coreTFIIH; also called yeast homologue of XPB; source: purified from yeast as a subunit of coreTFIIH
T5 sequence (looked up): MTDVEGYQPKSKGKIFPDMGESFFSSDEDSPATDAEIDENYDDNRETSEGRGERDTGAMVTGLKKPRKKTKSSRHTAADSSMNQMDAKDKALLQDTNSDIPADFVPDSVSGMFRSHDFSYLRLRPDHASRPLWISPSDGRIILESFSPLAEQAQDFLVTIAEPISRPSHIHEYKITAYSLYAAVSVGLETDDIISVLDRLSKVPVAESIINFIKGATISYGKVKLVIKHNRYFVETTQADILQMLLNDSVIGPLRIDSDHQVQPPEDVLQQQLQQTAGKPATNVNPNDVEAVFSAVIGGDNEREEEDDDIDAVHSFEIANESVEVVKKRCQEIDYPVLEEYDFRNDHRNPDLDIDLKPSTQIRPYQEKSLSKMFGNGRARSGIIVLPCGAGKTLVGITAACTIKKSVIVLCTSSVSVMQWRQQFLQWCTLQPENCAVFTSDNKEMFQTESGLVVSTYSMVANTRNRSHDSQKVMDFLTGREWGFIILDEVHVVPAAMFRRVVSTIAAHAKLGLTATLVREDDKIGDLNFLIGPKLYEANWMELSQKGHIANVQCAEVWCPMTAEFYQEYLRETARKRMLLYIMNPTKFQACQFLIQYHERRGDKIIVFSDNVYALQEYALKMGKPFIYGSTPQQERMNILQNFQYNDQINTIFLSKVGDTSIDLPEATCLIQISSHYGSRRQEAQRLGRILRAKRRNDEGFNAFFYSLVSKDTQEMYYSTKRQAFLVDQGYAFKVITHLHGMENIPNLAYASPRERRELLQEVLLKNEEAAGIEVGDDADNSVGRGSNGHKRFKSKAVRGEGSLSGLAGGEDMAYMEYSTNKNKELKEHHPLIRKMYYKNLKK
Described as above.

For test [1], the target named is T6, Full-length Rad4–Rad23 complex (yeast, UniProt P14736 1-754; P32628 1-398).
T6 construct: Rad4 (XPC homologue), yeast; Rad23 (RAD23B homologue), yeast; also called Rad4–23; yeast homologue of XPC–RAD23B
T6 sequence (looked up) 1: T1 sequence 1
T6 sequence (looked up) 2: T1 sequence 2
Nature of the test: co-sedimentation; 10–40% glycerol gradient (20 mM HEPES, 150 mM potassium acetate, 2 mM magnesium acetate, 4 mM DTT, 2 mM ATP or AMP-PNP), 52,000 rpm 6 h 35 min, 4 °C; Rad4–Rad23–Rad33 pre-assembled on −24*/+24 AAF-DNA, then added to TFIIH; fractions by SDS-PAGE.

B1: Tfb1 (natural protein, yeast, UniProt P32776 1-642, looked up)
chain: MSHSGAAIFEKVSGIIAINEDVSPAELTWRSTDGDKVHTVVLSTIDKLQATPASSEKMMLRLIGKVDESKKRKDNEGNEVVPKPQRHMFSFNNRTVMDNIKMTLQQIISRYKDADIYEEKRRREESAQHTETPMSSSSVTAGTPTPHLDTPQLNNGAPLINTAKLDDSLSKEKLLTNLKLQQSLLKGNKVLMKVFQETVINAGLPPSEFWSTRIPLLRAFALSTSQKVGPYNVLSTIKPVASSENKVNVNLSREKILNIFENYPIVKKAYTDNVPKNFKEPEFWARFFSSKLFRKLRGEKIMQNDRGDVIIDRYLTLDQEFDRKDDDMLLHPVKKIIDLDGNIQDDPVVRGNRPDFTMQPGVDINGNSDGTVDILKGMNRLSEKMIMALKNEYSRTNLQNKSNITNDEEDEDNDERNELKIDDLNESYKTNYAIIHLKRNAHEKTTDNDAKSSADSIKNADLKVSNQQMLQQLSLVMDNLINKLDLNQVVPNNEVSNKINKRVITAIKINAKQAKHNNVNSALGSFVDNTSQANELEVKSTLPIDLLESCRMLHTTCCEFLKHFYIHFQSGEQKQASTVKKLYNHLKDCIEKLNELFQDVLNGDGESMSNTCTAYLKPVLNSITLATHKYDEYFNEYNNNSN
notes: Tfb1 (p62 homologue), subunit of yeast coreTFIIH; Stood in the assays as part of coreTFIIH; also called yeast homologue of p62; source: purified from yeast as a subunit of coreTFIIH
For the molecule B1, the binding result in the test with Rad4–Rad23–Rad33 complex, in the test with Rad4 and with Rad3 was “binds” in each case.

B2: Tfb5 (natural protein, yeast, UniProt Q3E7C1 1-72, looked up)
chain: MARARKGALVQCDPSIKALILQIDAKMSDIVLEELDDTHLLVNPSKVEFVKHELNRLLSKNIYNPMDEEENQ
notes: Tfb5 (p8 homologue), subunit of yeast coreTFIIH; Stood in the assays as part of coreTFIIH; also called yeast homologue of p8; source: purified from yeast as a subunit of coreTFIIH
As to B2, in the test with Tfb2, the binding result is recorded as “binds”.

B3: Rad33 (natural protein, yeast)
chain: T1 sequence 3
notes: Rad33 (CETN2 homologue), yeast; plasmid pETDuet-RAD33; also called yeast homologue of CETN2; source: E. coli Rosetta(DE3), purified (HisTrap, Q column)
For B3, the binding result (with Rad4; with Ssl2; in test [1]) was “binds” throughout.
